Measured values taken from article PMC11649694, “ZBTB48 is a priming factor regulating B-cell-specific CIITA expression”.

Biological target: T1, ZBTB48 ZnF10-11-C (Homo sapiens, UniProt P10074 548-620)
T1 sequence: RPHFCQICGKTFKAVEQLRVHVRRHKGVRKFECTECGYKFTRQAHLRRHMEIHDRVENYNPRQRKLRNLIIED
Experiment: X-ray crystallography; ZnF11 contacts G10G11G12; R614 contacts G12 and C8T9 of other strand; Pull-down: 150 mM NaCl, 50 mM Tris-HCl pH 7.5, 5 mM MgCl2, 0.5% Igepal CA-630, 1 mM DTT, 20 ug salmon sperm DNA, 4 C 2 h; crystals: 0.2 M imidazole malate pH 8.5, 20% PEG 4K, 20 C
Conditions: protein: recombinant; tags: GST removed by TEV; 5' overhang 1 nt at both ends, 15 bp

B1: CIITA e.2 crystal duplex (dsDNA)
DNA 1: CACAAGTGAGGGATCA
DNA 2: GTGATCCCTCACTTGT
binding result: binds
